{"source": "patent US20040097713", "test_system": "GST-IRS-1 C-terminus fusion protein containing Ser1101", "sequence (chain, as listed by the source)": "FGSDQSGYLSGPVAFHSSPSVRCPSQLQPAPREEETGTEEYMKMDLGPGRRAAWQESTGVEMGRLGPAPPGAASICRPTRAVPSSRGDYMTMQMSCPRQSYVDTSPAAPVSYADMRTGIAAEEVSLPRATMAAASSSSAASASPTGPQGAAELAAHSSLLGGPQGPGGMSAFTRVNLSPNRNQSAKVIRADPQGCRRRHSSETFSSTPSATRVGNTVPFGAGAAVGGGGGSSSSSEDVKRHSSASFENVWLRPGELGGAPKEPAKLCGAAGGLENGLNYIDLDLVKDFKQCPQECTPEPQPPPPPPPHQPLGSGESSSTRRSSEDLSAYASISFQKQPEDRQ", "data": [{"substance": "Akt kinase, active", "values": [{"measurement": "in vitro kinase reaction, phosphorylation at Ser1101 by Western blot", "value": "The Akt kinase could not effectively phosphorylate IRS-1 at Ser1101, despite the occurrence of this residue within a putative Akt motif"}]}, {"substance": "protein kinase C theta, active, purified", "values": [{"measurement": "in vitro kinase reaction, phosphorylation at Ser1101 by Western blot", "value": "PKC theta is the only PKC isoform that robustly phosphorylated the GST-IRS-1 fusion protein substrate at Ser1101"}]}]}
